Results reported in patent US6613746.

Tests used:
[1] = target: ELAM-Rg, soluble ELAM-1-IgG1 chimera (ELAM-1 extracellular domain fused to hinge, CH2 and CH3 domains of human IgG1) (human) (UniProt P16581); experiment: inhibition of adhesion of human T lymphocytes to immobilized ELAM-1, fusion protein at about 50 µg/ml
[2] = target: ELAM-Rg, soluble ELAM-1-IgG1 chimera (ELAM-1 extracellular domain fused to hinge, CH2 and CH3 domains of human IgG1) (human) (UniProt P16581); experiment: inhibition of adhesion of myeloid HL60 cells to immobilized ELAM-1, fusion protein at about 50 µg/ml

Chain of ELAM-Rg, soluble ELAM-1-IgG1 chimera (ELAM-1 extracellular domain fused to hinge, CH2 and CH3 domains of human IgG1) (human) (P16581 22-556 limits assumed, stated change not applied): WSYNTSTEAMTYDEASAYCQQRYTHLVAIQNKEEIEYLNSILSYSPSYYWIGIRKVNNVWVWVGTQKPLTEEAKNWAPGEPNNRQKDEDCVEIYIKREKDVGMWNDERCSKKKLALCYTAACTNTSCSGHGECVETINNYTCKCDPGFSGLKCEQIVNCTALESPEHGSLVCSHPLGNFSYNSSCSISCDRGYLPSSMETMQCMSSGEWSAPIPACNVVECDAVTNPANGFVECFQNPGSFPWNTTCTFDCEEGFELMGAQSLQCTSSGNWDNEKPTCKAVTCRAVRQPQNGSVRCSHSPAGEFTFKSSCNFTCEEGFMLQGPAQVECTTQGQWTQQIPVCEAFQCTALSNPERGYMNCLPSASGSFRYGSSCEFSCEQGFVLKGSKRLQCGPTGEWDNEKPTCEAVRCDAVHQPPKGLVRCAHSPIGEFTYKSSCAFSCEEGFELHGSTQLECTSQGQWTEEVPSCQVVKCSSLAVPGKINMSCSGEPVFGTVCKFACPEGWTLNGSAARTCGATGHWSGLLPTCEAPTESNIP

inhibition of adhesion [1]: > 50%
inhibition of adhesion [2]: > 50%
Substance: α1-AGP-IgG1 fusion protein (α1-AGP-Hinge-CH2-CH3) produced in COS cells (Fc fusion)
